Laboratory results reported in publication PMC3870192.

Columns and labels:
Assay in all cases: purified protein
Type in all cases: biochemical, Plenodomus lingam
Conditions in all cases: 1 mM [1-14C]DMAPP, 100 mM Tris-HCl pH 8.0, 2% glycerol, 30 °C
[1] = test system: COc1cccc2[nH]cc(C[C@H](N)C(=O)O)c12
[2] = test system: N[C@@H](Cc1c[nH]c2ccccc12)C(=O)O
[3] = test system: Cc1cccc2c(C[C@H](N)C(=O)O)c[nH]c12

Substance: SirD (tyrosine O-prenyltransferase; dimethylallyltyrosine synthase) (Plenodomus lingam)
- Km [1]: 5100 ± 2000 µM
- kcat/Km [1]: 2.5 M⁻¹ s⁻¹
- Km [2]: 370 ± 60 µM
- kcat [2]: 0.095 ± 0.002 s⁻¹
- kcat/Km [2]: 260 M⁻¹ s⁻¹
- Km [3]: 2000 ± 400 µM
- kcat/Km [3]: 6.5 M⁻¹ s⁻¹
